Experimental data reported in patent US20230118024A1 (Chugai, published 2023).

Experiments:
[1] = molecular target: T1, HLA-DQ2.5/33mer gliadin peptide complex on Ba/F3 cells (human; wheat); experiment: FACS
T1 construct: also called Ba/F3-HLA-DQ2.5/33mer gliadin peptide; HLA-DQ2.5/gliadin peptide complex

[2] = molecular target: T2, HLA-DQ2.5/CLIP peptide complex on Ba/F3 cells (human); experiment: FACS
T2 construct: also called Ba/F3-HLA-DQ2.5/CLIP peptide

[3] = molecular target: T3, HLA-DQ2.5/alpha 1 gliadin peptide complex on Ba/F3 cells (human; wheat); experiment: FACS
T3 construct: also called Ba/F3-HLA-DQ2.5/alpha 1 gliadin peptide

[4] = molecular target: T4, HLA-DQ2.5/alpha 1b gliadin peptide complex on Ba/F3 cells (human; wheat); experiment: FACS
T4 construct: also called Ba/F3-HLA-DQ2.5/alpha 1b gliadin peptide

[5] = molecular target: T5, HLA-DQ2.5/alpha 2 gliadin peptide complex on Ba/F3 cells (human; wheat); experiment: FACS
T5 construct: also called Ba/F3-HLA-DQ2.5/alpha 2 gliadin peptide

[6] = molecular target: T6, HLA-DQ2.5/omega 1 gliadin peptide complex on Ba/F3 cells (human; wheat); experiment: FACS
T6 construct: also called Ba/F3-HLA-DQ2.5/omega 1 gliadin peptide

[7] = molecular target: T7, HLA-DQ2.5/omega 2 gliadin peptide complex on Ba/F3 cells (human; wheat); experiment: FACS
T7 construct: also called Ba/F3-HLA-DQ2.5/omega 2 gliadin peptide

[8] = molecular target: T8, HLA-DQ2.5/secalin 1 peptide complex on Ba/F3 cells (human; rye); experiment: FACS
T8 construct: also called Ba/F3-HLA-DQ2.5/secalin 1 peptide

[9] = molecular target: T9, HLA-DQ2.5/secalin 2 peptide complex on Ba/F3 cells (human; rye); experiment: FACS
T9 construct: also called Ba/F3-HLA-DQ2.5/secalin 2 peptide

[10] = molecular target: T1, HLA-DQ2.5/33mer gliadin peptide complex …; experiment: cell-based or functional assay
[11] = molecular target: T10, recombinant HLA-DQ2.5/33mer gliadin peptide complex (human; wheat); experiment: SPR, Ab captured, 37 C, pH 7.4
T10 construct: also called soluble HLA-DQ2.5/33mer gliadin peptide complex
T10 alpha: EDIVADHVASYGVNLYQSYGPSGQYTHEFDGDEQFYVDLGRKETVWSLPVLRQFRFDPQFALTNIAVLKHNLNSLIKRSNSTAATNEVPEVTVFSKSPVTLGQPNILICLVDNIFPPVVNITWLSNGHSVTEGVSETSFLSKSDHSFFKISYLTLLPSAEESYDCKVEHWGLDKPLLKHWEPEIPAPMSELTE
T10 beta: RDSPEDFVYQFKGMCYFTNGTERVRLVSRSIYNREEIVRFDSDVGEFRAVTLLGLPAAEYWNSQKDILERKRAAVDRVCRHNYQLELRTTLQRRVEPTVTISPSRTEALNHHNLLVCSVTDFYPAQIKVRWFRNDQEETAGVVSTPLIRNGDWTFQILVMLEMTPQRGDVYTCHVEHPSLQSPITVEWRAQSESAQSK
T10 peptide: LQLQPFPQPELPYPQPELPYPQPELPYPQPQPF

| Binder | FIG. 30 FACS value (IC17=0, DQN0139bb=100) [1] | FIG. 30 FACS value (IC17=0, DQN0139bb=100) [2] | FIG. 30 FACS value (IC17=0, DQN0139bb=100) [3] | FIG. 30 FACS value (IC17=0, DQN0139bb=100) [4] | FIG. 30 FACS value (IC17=0, DQN0139bb=100) [5] | FIG. 30 FACS value (IC17=0, DQN0139bb=100) [6] | FIG. 30 FACS value (IC17=0, DQN0139bb=100) [7] | FIG. 30 FACS value (IC17=0, DQN0139bb=100) [8] | FIG. 30 FACS value (IC17=0, DQN0139bb=100) [9] | IC50 (read off the curve) [10] | Kd [11] |
| --- | --- | --- | --- | --- | --- | --- | --- | --- | --- | --- | --- |
| DQN0303hh (antibody, human IgG1, kappa, V domains shown, also called DQN0303Lh) VH: QQHLEESGGGLVKPGGTLTLTCTASGIDFSSYYYMCWVRQAPGKGLEWIACIYTGDGSTYYASWVNGRFTISRSTSLNTVTLQLNGLAAADTATYFCARSYGASSAIGYFNLWGPGTLVTVSS VL: DVVMTQTPSSKSAAVGGTVTIKCQASQNIYSNLAWYQQKPGQRPKLLIYEASTLASGVPSRFRGSGSGTEFTLTISDLECDDAATYYCQNYYYTSSNDFYTFGGGTKVEIKR | 72.8 | 80 | 51.4 | 41.5 | 62.6 | 56.2 | 91.7 | 64.5 | 59.4 | – | – |
| DQN0223hh (antibody, human IgG1, kappa, V domains shown, also called DQN0223Lh) VH: QQQLEESGGGLVKPGGTLTLTCKASRIDFSTYYYICWVRQSPWKGLEWIACIYSGDGYTYYPSWAKGRFSISKTSSTTVTLQVTSLTAADTATYFCARSYGGSSASAYFTLWGPGTQVTVSS VL: AVVLTQTASPVSAPVGGTVTIKCQASQSIGSNLGWYQQKPGQPPKLLIYGASALASGVPSRFKGSGSGTQFTLTINDLECADAATYYCQGYYYSSSAEWHSFGGGTKVEIKR | 59.5 | 60.2 | 27.9 | 36 | 46.8 | 46 | 59 | 47.6 | 48.4 | – | – |
| DQN0333hh (antibody, human IgG1, kappa, V domains shown, also called DQN0333Lh) VH: QSVEESGGRLVMPGGSLTLTCTASGFSLSSYYMNWVRQAPGKGLEWIGVIYSTDITDYATWATGRFTISKTSTTVDLKMTSLTAADTATYFCARELSPTTSGYIAYLWGPGTLVTVSS VL: AYDMTQTPASVEVAVGGTVTIKCQASQSISSYLAWYQQKPGQPPKLLIYSASTLASGVPSRFKGSGSGTQFTLTVIDVQCDDAATYYCQQTYSGKNVINTFGGGTKVEIKR | 106 | 116 | – | 108 | 118 | 106 | 128 | 110 | 106 | – | – |
| DQN0370hh (antibody, human IgG1, kappa, V domains shown, also called DQN0370Lh) VH: QSLEESGGGLVKPGGPLTLTCTASGFSFSSAYYMCWVRQAPGKGLEWIACIYVGSGSTYYTSWAKGRFTISKVSSTTMTLQMTSLTAADTATYFCARDPLIYYYYGELNLWGPGTLVTVSS VL: AVVLTQTASPVSAPVGGTVTIKCQASEDIYSNLAWYQQKPGQRPKVLIYSASTLASGVSSRFKGSRSGTEYTLSITDLGCADAATYYCQAYYDIGGVTFGGGTKVEIKR | 107 | 1 | 91.2 | 79.2 | 83.7 | 73.7 | 65.8 | 79.2 | 68.1 | ~0.3 mg/L | 4.47 nM |
| DQN0344xx (antibody, human IgG1, kappa, V domains shown, also called DQN0344Hx; DQN0344Lx) VH: QSLEESGGGLVKPGGTLTLTCTASGFSFSSSYWMCWVRQAPGKGLEWVACVYGGSDTTYYASWTKGRFTISKGSSTTVALQVTSLTAADTATYFCARDPLNYYYYGELNLWGPGTLVTVSS VL: AVVLTQTASPVSAAVGGTVTIRCQATENIYSGLAWYQQKPGQPPKVLIYYVSTLASGVPSRFKGSGSGTEYTLTISGVQCDDAATYYCQTYHDISNVTFGGGTKVEIKR | 106 | – | 89.7 | 75.3 | 81.9 | 68.8 | 3.7 | 73.9 | 60.6 | ~0.3 mg/L | – |
| DQN0235ee (antibody, human IgG1, kappa, V domains shown, also called DQN0235He; DQN0235Le) VH: QQQLEESGGGLVKPGGTLTLTCKAGIDFSTYYYMCWVRQAPGKRPEWIACIFDGDGSTYYASWVNGRFTISKASSTTVTLRMTSLTAADTATYFCARSAGGSSSFGYFNLWGPGTLVTVSS VL: AYDMTQTPSSVSAAVGGTVTIKCQASQSISSSYLAWYHQKPGQSPKLLIYSASTLASGVPSRFKGSGSGTEFTLTISDLACADAATYYCQSYYYFSSNAWHTFGGGTKVEIKR | 70.1 | 82 | 52.3 | – | 81.3 | 75.2 | 78.8 | 73.4 | 71.1 | – | – |
| DQN0356bb (antibody, human IgG1, kappa, V domains shown, also called DQN0356Hb; DQN0356Lb) VH: QEQLVESGGGLVKPEGSLTLTCTASGFSFSSDYSVCWVRQAPGKGLEWIGCIYTGSDITYYASWAKGRFTISKTSSTTVTLQMTSLTAADTATWFCARSWNGYGGYADLWGPGTLVTVSS VL: AYDMAQTPASVEVAVGGTVTIKCQASQSIDNYLAWYQQKPGQPPKLLIYWASTLASGVSSRFKGSGSGTQFSLTISDLECADAATYYCQQYYSNSNVVNTFGGGTKVEIKR | 91.1 | 98.3 | 94.9 | 88 | 85.6 | 76 | 68.8 | 74.5 | 77.8 | – | – |
